Laboratory results published in PMC6529632, “Robust Stoichiometry of FliW-CsrA Governs Flagellin Homeostasis and Cytoplasmic Organization in Bacillus subtilis” (mBio, 2019).

Key:
[1] = test system: FliW (Bacillus subtilis (3610?)); assay: EMSA; conditions: apparent Kd; FliW alone; 40 mM Tris-HCl pH 7.5, 4 mM MgCl2, 100 mM KCl, 20 ng/ul yeast RNA, 20 mM DTT, 10% glycerol, 4 U RNase inhibitor, 20 pM RNA, 37 C 30 min (FliW added for a …)
[2] = test system: CsrA-Hetero (CsrA-WT-His6/CsrA-N55D-strep) (Bacillus subtilis (3610?)); assay: EMSA; conditions: apparent Kd; main text gives 460 nM; 40 mM Tris-HCl pH 7.5, 4 mM MgCl2, 100 mM KCl, 20 ng/ul yeast RNA, 20 mM DTT, 10% glycerol, 4 U RNase inhibitor, 20 pM RNA, 37 C 30 min (FliW added for a …)
[3] = test system: CsrA-WT-His6 (Bacillus subtilis (3610?)); assay: EMSA; conditions: apparent Kd; main text gives 290 nM; 40 mM Tris-HCl pH 7.5, 4 mM MgCl2, 100 mM KCl, 20 ng/ul yeast RNA, 20 mM DTT, 10% glycerol, 4 U RNase inhibitor, 20 pM RNA, 37 C 30 min (FliW added for a …)
[4] = test system: CsrA-N55D-strep (Bacillus subtilis (3610?)); assay: EMSA; conditions: apparent Kd; 40 mM Tris-HCl pH 7.5, 4 mM MgCl2, 100 mM KCl, 20 ng/ul yeast RNA, 20 mM DTT, 10% glycerol, 4 U RNase inhibitor, 20 pM RNA, 37 C 30 min (FliW added for a …)
[5] = target: T1, CsrA-Hetero (CsrA-WT-His6/CsrA-N55D-strep) N55D (Bacillus subtilis (3610?)) (UniProt P33911+P33911); assay: EMSA; conditions: 40 mM Tris-HCl pH 7.5, 4 mM MgCl2, 100 mM KCl, 20 ng/ul yeast RNA, 20 mM DTT, 10% glycerol, 4 U RNase inhibitor, 20 pM RNA, 37 C 30 min (FliW added for a …)
T1 sequence 1: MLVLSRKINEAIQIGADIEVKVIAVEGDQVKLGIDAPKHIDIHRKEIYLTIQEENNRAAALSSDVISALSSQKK
T1 sequence 2: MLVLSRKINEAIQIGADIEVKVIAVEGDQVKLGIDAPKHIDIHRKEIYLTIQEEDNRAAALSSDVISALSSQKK

[6] = target: T2, CsrA-N55D-strep N55D (Bacillus subtilis (3610?)) (UniProt P33911); assay: EMSA; conditions: 40 mM Tris-HCl pH 7.5, 4 mM MgCl2, 100 mM KCl, 20 ng/ul yeast RNA, 20 mM DTT, 10% glycerol, 4 U RNase inhibitor, 20 pM RNA, 37 C 30 min (FliW added for a …)
T2 sequence: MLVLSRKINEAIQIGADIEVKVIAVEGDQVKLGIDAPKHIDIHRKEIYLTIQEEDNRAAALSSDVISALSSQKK

[7] = target: T3, CsrA-WT-His6 (Bacillus subtilis (3610?)) (UniProt P33911); assay: EMSA; conditions: 40 mM Tris-HCl pH 7.5, 4 mM MgCl2, 100 mM KCl, 20 ng/ul yeast RNA, 20 mM DTT, 10% glycerol, 4 U RNase inhibitor, 20 pM RNA, 37 C 30 min (FliW added for a …)
T3 sequence: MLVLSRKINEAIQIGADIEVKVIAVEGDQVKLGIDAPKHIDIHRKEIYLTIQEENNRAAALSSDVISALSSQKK

[8] = target: T4, FliW (Bacillus subtilis (3610?)) (UniProt P96503); assay: EMSA; conditions: 40 mM Tris-HCl pH 7.5, 4 mM MgCl2, 100 mM KCl, 20 ng/ul yeast RNA, 20 mM DTT, 10% glycerol, 4 U RNase inhibitor, 20 pM RNA, 37 C 30 min (FliW added for a …)
T4 sequence: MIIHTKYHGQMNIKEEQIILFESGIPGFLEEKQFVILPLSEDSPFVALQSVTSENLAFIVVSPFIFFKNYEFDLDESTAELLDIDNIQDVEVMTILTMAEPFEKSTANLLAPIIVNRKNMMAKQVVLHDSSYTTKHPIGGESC

[9] = target: T5, CsrA^N55D-strep (monomer co-expressed with CsrA^WT-His6) (Bacillus subtilis, UniProt P33911 1-74, N55D); assay: sequential affinity co-purification with SDS-PAGE; both chains co-expressed from one vector in E. coli; Ni-NTA by the His6 tag, then Strep-Tactin by the Strep tag, then size exclusion; Coomassie-stained denaturing gel, densitometry; conditions: partners not purified
T5 construct: CsrA of Bacillus subtilis with N55D; Same chain as in m2 and m3; Written as a single chain for the pair row of the heterodimer; also called CsrA^N55D-strep tag; source: Rosetta-gami E. coli, co-expressed with CsrA^WT-His6 from dual-expression vector pRO76
T5 sequence (looked up): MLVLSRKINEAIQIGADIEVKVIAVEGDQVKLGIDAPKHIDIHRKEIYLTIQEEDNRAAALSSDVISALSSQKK

hag 5' UTR transcript +1 to +100
Kd [1]: 1110 nM
Kd [2]: 458 nM
Kd [3]: 287 nM
Kd [4]: 960 nM

GGUAGCCGGGAGGAGGCGCAAAAGACUCAGCCAGUUACAAAAUAAGGGCACAAGGACGUGCCUUAACAACAUAUUCAGGGAGGAACAAAACAAUGAGAAUU [hag 5' UTR transcript +1 to +100]
Kd [5]: 458 nM
Kd [6]: 960 nM
binding [6]: binds
Kd [7]: 287 nM
Kd [8]: 1110 nM

B1: CsrA^WT-His6 (monomer co-expressed with CsrA^N55D-strep) (natural protein, Bacillus subtilis, UniProt P33911 1-74, looked up)
chain: MLVLSRKINEAIQIGADIEVKVIAVEGDQVKLGIDAPKHIDIHRKEIYLTIQEENNRAAALSSDVISALSSQKK
notes: CsrA of Bacillus subtilis, wild type, amplified from pCSB9; Same chain as in m1 and m3; Written as a single chain for the pair row of the heterodimer; also called CsrA-His6; source: Rosetta-gami E. coli, co-expressed with CsrA^N55D-strep from dual-expression vector pRO76
stoichiometry N [9]: 0.88
